Measurements from patent US20240209100A1 (DIAGONAL THERAPEUTICS, published 2024).

T1: IL-18 receptor (IL-18Rα/IL-18Rβ) overexpressed on HEK-Blue IL-18 cells (Homo sapiens (Human), UniProt Q13478 19-541; O95256 20-599)
T1 sequence 1: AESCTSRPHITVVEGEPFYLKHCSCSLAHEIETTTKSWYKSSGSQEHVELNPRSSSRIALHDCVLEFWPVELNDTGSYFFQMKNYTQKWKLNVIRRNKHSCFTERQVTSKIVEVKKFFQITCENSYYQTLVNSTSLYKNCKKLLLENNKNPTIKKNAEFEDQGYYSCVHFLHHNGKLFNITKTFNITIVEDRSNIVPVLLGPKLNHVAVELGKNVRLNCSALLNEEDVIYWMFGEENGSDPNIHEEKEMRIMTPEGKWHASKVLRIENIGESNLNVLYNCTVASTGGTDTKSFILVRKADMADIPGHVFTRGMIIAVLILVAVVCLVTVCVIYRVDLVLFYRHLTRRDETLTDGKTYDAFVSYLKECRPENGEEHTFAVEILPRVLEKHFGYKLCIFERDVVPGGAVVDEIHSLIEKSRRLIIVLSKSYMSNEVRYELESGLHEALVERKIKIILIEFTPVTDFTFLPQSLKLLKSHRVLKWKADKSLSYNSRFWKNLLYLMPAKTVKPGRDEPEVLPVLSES
T1 sequence 2: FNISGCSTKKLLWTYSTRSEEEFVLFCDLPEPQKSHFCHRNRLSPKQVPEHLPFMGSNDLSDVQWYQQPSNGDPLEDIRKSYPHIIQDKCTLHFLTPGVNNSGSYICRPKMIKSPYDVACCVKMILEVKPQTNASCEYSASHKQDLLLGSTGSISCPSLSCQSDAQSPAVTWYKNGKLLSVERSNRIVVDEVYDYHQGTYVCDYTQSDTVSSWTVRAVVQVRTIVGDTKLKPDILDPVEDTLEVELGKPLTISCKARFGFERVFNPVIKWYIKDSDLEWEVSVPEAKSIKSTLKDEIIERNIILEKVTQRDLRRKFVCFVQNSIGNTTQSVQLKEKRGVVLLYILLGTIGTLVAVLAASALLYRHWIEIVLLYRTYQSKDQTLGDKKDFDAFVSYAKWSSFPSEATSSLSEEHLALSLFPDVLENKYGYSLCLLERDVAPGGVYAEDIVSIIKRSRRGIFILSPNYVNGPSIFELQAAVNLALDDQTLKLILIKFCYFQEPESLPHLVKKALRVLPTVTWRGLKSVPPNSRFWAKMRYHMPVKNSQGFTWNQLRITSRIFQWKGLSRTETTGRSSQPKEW

B1: DGL221 (bispecific antibody)
heavy 1: QVQLVESGGGLVQAGGSLRLSCAASGRTFSKHAMGWFRQAPGKEREFVAAIDWSGGSTYYADSVKGRFTISRDNAKNTVYLQMDSLKPEDTAVYYCAADSYTDYAQLWLPELESEYDYWGQGTLVTVSSGGGGSGGGGSGGGGSGGGGSCPPCPAPEAAGAPSVFLFPPKPKDTLMISRTPEVTCVVVDVSHEDPEVKFNWYVDGVEVHNAKTKPREEQYNSTYRVVSVLTVLHQDWLNGKEYKCKVSNKALPAPIEKTISKAKGQPREPQVCTLPPSRDELTKNQVSLSCAVKGFYPSDIAVEWESNGQPENNYKTTPPVLDSDGSFFLVSKLTVDKSRWQQGNVFSCSVMHEALHNHYTQKSLSLSPGWSHPQFEK
heavy 2: not shown
B2: DGL214 (bispecific antibody)
heavy 1: QVQLVESGGGLVQAGGSLRLSCAASGRTFSKHAMGWFRQAPGKEREFVAAIDWSGGSTYYADSVKGRFTISRDNAKNTVYLQMDSLKPEDTAVYYCAADSYTDYAQLWLPELESEYDYWGQGTLVTVSSDKTHTCPPCPAPEAAGAPSVFLFPPKPKDTLMISRTPEVTCVVVDVSHEDPEVKFNWYVDGVEVHNAKTKPREEQYNSTYRVVSVLTVLHQDWLNGKEYKCKVSNKALPAPIEKTISKAKGQPREPQVCTLPPSRDELTKNQVSLSCAVKGFYPSDIAVEWESNGQPENNYKTTPPVLDSDGSFFLVSKLTVDKSRWQQGNVFSCSVMHEALHNHYTQKSLSLSPGWSHPQFEK
heavy 2: not shown
B3: DGL217 (bispecific antibody)
heavy 1: QVQLVESGGGLVQAGGSLRLSCAASGRTFSKHAMGWFRQAPGKEREFVAAIDWSGGSTYYADSVKGRFTISRDNAKNTVYLQMDSLKPEDTAVYYCAADSYTDYAQLWLPELESEYDYWGQGTLVTVSSDKTHTCPPCPAPEAAGAPSVFLFPPKPKDTLMISRTPEVTCVVVDVSHEDPEVKFNWYVDGVEVHNAKTKPREEQYNSTYRVVSVLTVLHQDWLNGKEYKCKVSNKALPAPIEKTISKAKGQPREPQVCTLPPSRDELTKNQVSLSCAVKGFYPSDIAVEWESNGQPENNYKTTPPVLDSDGSFFLVSKLTVDKSRWQQGNVFSCSVMHEALHNHYTQKSLSLSPGWSHPQFEK
heavy 2: QLQLVESGGGLVQAGGSLRLSCAASRSITFSHNVMGWYRQAPGKQRELVASIGSGGSTNYVDSVKGRATISRDNAKKTVYLQMNSLKPEDTAVYYCGVVVGVYRGSLGQGTLVTVSSEKSYGPPCPPCPAPEAAGAPSVFLFPPKPKDTLMISRTPEVTCVVVDVSHEDPEVKFNWYVDGVEVHNAKTKPREEQYNSTYRVVSVLTVLHQDWLNGKEYKCKVSNKALPAPIEKTISKAKGQPREPQVYTLPPCRDELTKNQVSLWCLVKGFYPSDIAVEWESNGQPENNYKTTPPVLDSDGSFFLYSKLTVDKSRWQQGNVFSCSVMHEALHNHYTQKSLSLSPGEPEA
B4: DGL215 (bispecific antibody)
heavy 1: QVQLVESGGGLVQAGGSLRLSCAASGRTFSKHAMGWFRQAPGKEREFVAAIDWSGGSTYYADSVKGRFTISRDNAKNTVYLQMDSLKPEDTAVYYCAADSYTDYAQLWLPELESEYDYWGQGTLVTVSSDKTHTCPPCPAPEAAGAPSVFLFPPKPKDTLMISRTPEVTCVVVDVSHEDPEVKFNWYVDGVEVHNAKTKPREEQYNSTYRVVSVLTVLHQDWLNGKEYKCKVSNKALPAPIEKTISKAKGQPREPQVCTLPPSRDELTKNQVSLSCAVKGFYPSDIAVEWESNGQPENNYKTTPPVLDSDGSFFLVSKLTVDKSRWQQGNVFSCSVMHEALHNHYTQKSLSLSPGWSHPQFEK
heavy 2: QLQLVESGGGLVQAGGSLRLSCAASRSITFSHNVMGWYRQAPGKQRELVASIGSGGSTNYVDSVKGRATISRDNAKKTVYLQMNSLKPEDTAVYYCGVVVGVYRGSLGQGTLVTVSSPLAPCPPCPAPEAAGAPSVFLFPPKPKDTLMISRTPEVTCVVVDVSHEDPEVKFNWYVDGVEVHNAKTKPREEQYNSTYRVVSVLTVLHQDWLNGKEYKCKVSNKALPAPIEKTISKAKGQPREPQVYTLPPCRDELTKNQVSLWCLVKGFYPSDIAVEWESNGQPENNYKTTPPVLDSDGSFFLYSKLTVDKSRWQQGNVFSCSVMHEALHNHYTQKSLSLSPGEPEA
B5: DGL216 (bispecific antibody)
heavy 1: QVQLVESGGGLVQAGGSLRLSCAASGRTFSKHAMGWFRQAPGKEREFVAAIDWSGGSTYYADSVKGRFTISRDNAKNTVYLQMDSLKPEDTAVYYCAADSYTDYAQLWLPELESEYDYWGQGTLVTVSSDKTHTCPPCPAPEAAGAPSVFLFPPKPKDTLMISRTPEVTCVVVDVSHEDPEVKFNWYVDGVEVHNAKTKPREEQYNSTYRVVSVLTVLHQDWLNGKEYKCKVSNKALPAPIEKTISKAKGQPREPQVCTLPPSRDELTKNQVSLSCAVKGFYPSDIAVEWESNGQPENNYKTTPPVLDSDGSFFLVSKLTVDKSRWQQGNVFSCSVMHEALHNHYTQKSLSLSPGWSHPQFEK
heavy 2: QLQLVESGGGLVQAGGSLRLSCAASRSITFSHNVMGWYRQAPGKQRELVASIGSGGSTNYVDSVKGRATISRDNAKKTVYLQMNSLKPEDTAVYYCGVVVGVYRGSLGQGTLVTVSSGGGGSGGGGSGGGGSGGGGSCPPCPAPEAAGAPSVFLFPPKPKDTLMISRTPEVTCVVVDVSHEDPEVKFNWYVDGVEVHNAKTKPREEQYNSTYRVVSVLTVLHQDWLNGKEYKCKVSNKALPAPIEKTISKAKGQPREPQVYTLPPCRDELTKNQVSLWCLVKGFYPSDIAVEWESNGQPENNYKTTPPVLDSDGSFFLYSKLTVDKSRWQQGNVFSCSVMHEALHNHYTQKSLSLSPGEPEA
B6: DGL218 (bispecific antibody)
heavy 1: QVQLVESGGGLVQAGGSLRLSCAASGRTFSKHAMGWFRQAPGKEREFVAAIDWSGGSTYYADSVKGRFTISRDNAKNTVYLQMDSLKPEDTAVYYCAADSYTDYAQLWLPELESEYDYWGQGTLVTVSSCPPCPAPEAAGAPSVFLFPPKPKDTLMISRTPEVTCVVVDVSHEDPEVKFNWYVDGVEVHNAKTKPREEQYNSTYRVVSVLTVLHQDWLNGKEYKCKVSNKALPAPIEKTISKAKGQPREPQVCTLPPSRDELTKNQVSLSCAVKGFYPSDIAVEWESNGQPENNYKTTPPVLDSDGSFFLVSKLTVDKSRWQQGNVFSCSVMHEALHNHYTQKSLSLSPGWSHPQFEK
heavy 2: not shown
B7: DGL222 (bispecific antibody)
heavy 1: QVQLVESGGGLVQAGGSLRLSCAASGRTFSKHAMGWFRQAPGKEREFVAAIDWSGGSTYYADSVKGRFTISRDNAKNTVYLQMDSLKPEDTAVYYCAADSYTDYAQLWLPELESEYDYWGQGTLVTVSSEKSYGPPCPPCPAPEAAGAPSVFLFPPKPKDTLMISRTPEVTCVVVDVSHEDPEVKFNWYVDGVEVHNAKTKPREEQYNSTYRVVSVLTVLHQDWLNGKEYKCKVSNKALPAPIEKTISKAKGQPREPQVCTLPPSRDELTKNQVSLSCAVKGFYPSDIAVEWESNGQPENNYKTTPPVLDSDGSFFLVSKLTVDKSRWQQGNVFSCSVMHEALHNHYTQKSLSLSPGWSHPQFEK
heavy 2: not shown
B8: DGL219 (bispecific antibody)
heavy 1: QVQLVESGGGLVQAGGSLRLSCAASGRTFSKHAMGWFRQAPGKEREFVAAIDWSGGSTYYADSVKGRFTISRDNAKNTVYLQMDSLKPEDTAVYYCAADSYTDYAQLWLPELESEYDYWGQGTLVTVSSPLAPDKTHTCPPCPAPEAAGAPSVFLFPPKPKDTLMISRTPEVTCVVVDVSHEDPEVKFNWYVDGVEVHNAKTKPREEQYNSTYRVVSVLTVLHQDWLNGKEYKCKVSNKALPAPIEKTISKAKGQPREPQVCTLPPSRDELTKNQVSLSCAVKGFYPSDIAVEWESNGQPENNYKTTPPVLDSDGSFFLVSKLTVDKSRWQQGNVFSCSVMHEALHNHYTQKSLSLSPGWSHPQFEK
heavy 2: not shown
B9: DGL220 (bispecific antibody)
heavy 1: QVQLVESGGGLVQAGGSLRLSCAASGRTFSKHAMGWFRQAPGKEREFVAAIDWSGGSTYYADSVKGRFTISRDNAKNTVYLQMDSLKPEDTAVYYCAADSYTDYAQLWLPELESEYDYWGQGTLVTVSSPLAPCPPCPAPEAAGAPSVFLFPPKPKDTLMISRTPEVTCVVVDVSHEDPEVKFNWYVDGVEVHNAKTKPREEQYNSTYRVVSVLTVLHQDWLNGKEYKCKVSNKALPAPIEKTISKAKGQPREPQVCTLPPSRDELTKNQVSLSCAVKGFYPSDIAVEWESNGQPENNYKTTPPVLDSDGSFFLVSKLTVDKSRWQQGNVFSCSVMHEALHNHYTQKSLSLSPGWSHPQFEK
heavy 2: not shown

biological target: T1, IL-18 receptor (IL-18Rα/IL-18Rβ) …; assay: cell-based or functional assay

Point of comparison: B9, “HEK-Blue IL-18: Abs 405 at 100 nM” value 1.5 Abs. Against it:
- B1 — lower, 0.6 Abs
- B2 — lower, 1.1 Abs
- B3 — lower, 1.3 Abs
- B4 — lower, 1.4 Abs
- B5 — lower, 0.8 Abs
- B6 — lower, 1.3 Abs
- B7 — lower, 1.3 Abs
- B8 — lower, 1 Abs

Point of comparison: B2, “HEK-Blue IL-18: Fold over Background” value 4.7 fold. Against it:
- B1 — lower, 2.4 fold
- B3 — higher, 5.6 fold
- B4 — higher, 6.1 fold
- B5 — lower, 3.4 fold
- B6 — higher, 5.5 fold
- B7 — higher, 5.5 fold
- B8 — lower, 4.4 fold
- B9 — higher, 6.6 fold
